The experiment has as its system DU-145 cells. The experiment can be described thus: Wound healing assay. The class given is cell-based, human. To be noted: 12 hours. The procedure: FIGS. 2(A-E) illustrate EphA activation inhibited DU-145 cell migration. (A) Expression of c-Met is elevated in cell lines derived from more malignant prostate cancer. Total cellular proteins were immunoblotted with anti-human c-Met. An anti-tubulin blot was used as a control for protein loading. (B) In a modified Boyden chamber assay, DU-145 cells were placed in the upper chamber and allowed to migrate to the lower chamber containing indicated reagents. After 8 hours, cells were stained with crystal violet and cells remaining in the upper chamber were removed. Top panel: Cells migrated to the undersides of membrane were counted; six high power fields were counted. Results represent means±S.D. Representative fields were shown in the lower panel. (C) Ephrin-A1-Fc inhibits DU-145 cell migration when HGF/SF was uniformly presented in both sides of membranes. The experiment was carried out as described in A. (D) Inhibition of cell scattering by immobilized ephrin-A1 in a SOIL assay (Method). Ephrin-A1-Fc or control Fc was immobilized on 6-well culture dishes. Freshly confluent DU-145 cells on cover slips were transferred to the coated surfaces. Cells were stimulated with HGF/SF to induce migration off the cover slips to immobilized Fc or ephrin-A1-Fc. […] The wound healing was recorded prior to and 12 hours after the addition of Fc, ephrin-A1-Fc (1 μg/ml) and/or HGF/SF (20 ng/ml). […]

Experimental findings from patent publication US10434074B2, “Peptide and small molecule agonists of EPHA and uses thereof” (CASE WESTERN RESERVE UNIVERSITY, priority 2004, dated 2019) are described below.

B1: ephrin-A1-Fc: ephrin-A1 dimerized by fusion to the heavy chain of human IgG1 (protein)
chain: DRHTVFWNSSNPKFRNEDYTIHVQLNDYVDIICPHYEDHSVADAAMEQYILYLVEHEEYQLCQPQSKDQVRWQCNRPSAKHGPEKLSEKFQRFTPFTLGKEFKEGHSYYYISKPIHQHEDRCLRLKVTVSGKITHSPQAHDNPQEKRLAADDPEVRVLHSIGHS
modifications: left off: a dimerising Fc or GST
notes: ephrin-A1 dimerized by fusion to the heavy chain of human IgG1
Take B1: under “vs Fc”, the wound closing result was “slowed down the speed of wound closing”. The “wound closing with HGF/SF” value (vs HGF/SF and Fc) is given as “the wound closing was also delayed”.
